In patent US12545899B2, “Luciferase enzymes for use with thermostable luciferins in bioluminescent assays” (Promega Corporation, priority 2018, dated 2026):

Legend:
[1] = Kinetic analysis of thermostable variants with 400 fM-4 mM CS0280 (Table 12); format: biochemical; conditions: 4 mM ATP
Protocol: Table 12 includes representative results of kinetic analysis of the thermostable variants with 400 fM-4 mM CS0280. This panel of enzyme variants have a combination of improved thermostability and brightness with CS0280 relative to their progenitor enzyme variants MK134 and MK137.

[2] = Differential scanning fluorimetry (DSF) analysis; format: physicochemical; conditions: Table 12
Procedure, shortened: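 Enzymes mixed with Sypro Orange at 5× final, heated 30–95° C at 1° C per minute with fluorescence read every 60 s. Storage buffer 50 mM HEPES pH 7.5, 100 mM NaCl, 2 mM EDTA, or for luciferase variants 20 mM HEPES pH 7.5, 200 mM NaCl, 1 mM EDTA; per-minute fluorescence change plotted against temperature.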

| Molecule | Km ([1]; BrightGlo Buffer) | Vmax (RLU) ([1]; BrightGlo Buffer) | Km ([1]; Detection Reagent Buffer) | Vmax (RLU) ([1]; Detection Reagent Buffer) | DSF Tm (° C.) [2] |
| --- | --- | --- | --- | --- | --- |
| MK0142: SEQ ID NO: 109; H244W+S193A+N228D+L305F+S306P+I109V+C38R+F55I+Y108F+A316W+Y339M+T342S+V348I+T289R (protein) MADKNILYGPEPFYPLEDGTAGEQMFDALSRYAAIPGRIALTNAHTKENVLYEEILKLSCRLAESFKKYGLKQNDTIAVCSENSLQFFLPVIASLYLGIIVAPVNDKFVERELIHSLGIVKPRIVFCSKNTFQKVLNVKSKLKSIETIIILDLNEDLGGYQCLNNFISQNSDSNLDVKKFKPYSFNRDDQVAAIMFSSGTTGLPKGVMLTHKNIVARFSIAKDPTFGDAINPTSAILTVIPFHWGFGMMTTLGYFTCGFRVVLMHTFEEKLFLQSLQDYKVESTLLVPRLMAFLAKSALVEKYDFPHLKEIASGGWPLSKEIGEMVKKRFKLNFVRQGMGLSETTSAILITPKGDAKPGSTGKIVPLHAVKVVDPTTGKILGPNEPGELYFKGPMIMKGYYNNEEATKAIIDNDGWLRSGDIAYYDNDGHFYIVDRLKSLIKYKGYQVAPAEIEGILLQHPYIVDAGVTGIPDEAAGELPAAGVVVQTGKYLNEQIVQDYVASQVSTAKWLRGGVKFLDEIPKGSTGKIDRKVLRQMLEKHTNGHHHHHHHH | 4.98 µM | 1,409,786 RLU | 32.3 µM | 70,257 RLU | 71 °C |
| MK0144: SEQ ID NO: 110; H244W+S193A+N228D+L305F+S306P+I109V+C38R+F55I+Y108F+A316W+Y339M+T342S+V348I+K353R (protein) MADKNILYGPEPFYPLEDGTAGEQMFDALSRYAAIPGRIALTNAHTKENVLYEEILKLSCRLAESFKKYGLKQNDTIAVCSENSLQFFLPVIASLYLGIIVAPVNDKFVERELIHSLGIVKPRIVFCSKNTFQKVLNVKSKLKSIETIIILDLNEDLGGYQCLNNFISQNSDSNLDVKKFKPYSFNRDDQVAAIMFSSGTTGLPKGVMLTHKNIVARFSIAKDPTFGDAINPTSAILTVIPFHWGFGMMTTLGYFTCGFRVVLMHTFEEKLFLQSLQDYKVESTLLVPTLMAFLAKSALVEKYDFPHLKEIASGGWPLSKEIGEMVKKRFKLNFVRQGMGLSETTSAILITPRGDAKPGSTGKIVPLHAVKVVDPTTGKILGPNEPGELYFKGPMIMKGYYNNEEATKAIIDNDGWLRSGDIAYYDNDGHFYIVDRLKSLIKYKGYQVAPAEIEGILLQHPYIVDAGVTGIPDEAAGELPAAGVVVQTGKYLNEQIVQDYVASQVSTAKWLRGGVKFLDEIPKGSTGKIDRKVLRQMLEKHTNGHHHHHHHH | 10.5 µM | 1,586,262 RLU | 35.4 µM | 43,744 RLU | 73 °C |
| MK0146: SEQ ID NO: 112; H244W+S193A+N228D+L305F+S306P+I109V+C38R+F55I+Y108F+A316W+Y339M+T342S+V348I+L437R (protein) MADKNILYGPEPFYPLEDGTAGEQMFDALSRYAAIPGRIALTNAHTKENVLYEEILKLSCRLAESFKKYGLKQNDTIAVCSENSLQFFLPVIASLYLGIIVAPVNDKFVERELIHSLGIVKPRIVFCSKNTFQKVLNVKSKLKSIETIIILDLNEDLGGYQCLNNFISQNSDSNLDVKKFKPYSFNRDDQVAAIMFSSGTTGLPKGVMLTHKNIVARFSIAKDPTFGDAINPTSAILTVIPFHWGFGMMTTLGYFTCGFRVVLMHTFEEKLFLQSLQDYKVESTLLVPTLMAFLAKSALVEKYDFPHLKEIASGGWPLSKEIGEMVKKRFKLNFVRQGMGLSETTSAILITPKGDAKPGSTGKIVPLHAVKVVDPTTGKILGPNEPGELYFKGPMIMKGYYNNEEATKAIIDNDGWLRSGDIAYYDNDGHFYIVDRRKSLIKYKGYQVAPAEIEGILLQHPYIVDAGVTGIPDEAAGELPAAGVVVQTGKYLNEQIVQDYVASQVSTAKWLRGGVKFLDEIPKGSTGKIDRKVLRQMLEKHTNGHHHHHHHH | 4.21 µM | 1,114,607 RLU | 33.3 µM | 55,964 RLU | 72 °C |
| MK0147: SEQ ID NO: 113; H244W+S193A+N228D+L305F+S306P+I109V+C38R+F55I+Y108F+A316W+Y339M+T342S+V348I+W510R (protein) MADKNILYGPEPFYPLEDGTAGEQMFDALSRYAAIPGRIALTNAHTKENVLYEEILKLSCRLAESFKKYGLKQNDTIAVCSENSLQFFLPVIASLYLGIIVAPVNDKFVERELIHSLGIVKPRIVFCSKNTFQKVLNVKSKLKSIETIIILDLNEDLGGYQCLNNFISQNSDSNLDVKKFKPYSFNRDDQVAAIMFSSGTTGLPKGVMLTHKNIVARFSIAKDPTFGDAINPTSAILTVIPFHWGFGMMTTLGYFTCGFRVVLMHTFEEKLFLQSLQDYKVESTLLVPTLMAFLAKSALVEKYDFPHLKEIASGGWPLSKEIGEMVKKRFKLNFVRQGMGLSETTSAILITPKGDAKPGSTGKIVPLHAVKVVDPTTGKILGPNEPGELYFKGPMIMKGYYNNEEATKAIIDNDGWLRSGDIAYYDNDGHFYIVDRLKSLIKYKGYQVAPAEIEGILLQHPYIVDAGVTGIPDEAAGELPAAGVVVQTGKYLNEQIVQDYVASQVSTAKRLRGGVKFLDEIPKGSTGKIDRKVLRQMLEKHTNGHHHHHHHH | 7.12 µM | 1,101,042 RLU | 26.1 µM | 62,099 RLU | 71 °C |
| MK0139: SEQ ID NO: 107; H244W+S193A+N228D+L305F+S306P+I109V+C38R+F55I+Y108F+A316W+Y339M+T342S+V348I+I240V (protein) MADKNILYGPEPFYPLEDGTAGEQMFDALSRYAAIPGRIALTNAHTKENVLYEEILKLSCRLAESFKKYGLKQNDTIAVCSENSLQFFLPVIASLYLGIIVAPVNDKFVERELIHSLGIVKPRIVFCSKNTFQKVLNVKSKLKSIETIIILDLNEDLGGYQCLNNFISQNSDSNLDVKKFKPYSFNRDDQVAAIMFSSGTTGLPKGVMLTHKNIVARFSIAKDPTFGDAINPTSAILTVVPFHWGFGMMTTLGYFTCGFRVVLMHTFEEKLFLQSLQDYKVESTLLVPTLMAFLAKSALVEKYDFPHLKEIASGGWPLSKEIGEMVKKRFKLNFVRQGMGLSETTSAILITPKGDAKPGSTGKIVPLHAVKVVDPTTGKILGPNEPGELYFKGPMIMKGYYNNEEATKAIIDNDGWLRSGDIAYYDNDGHFYIVDRLKSLIKYKGYQVAPAEIEGILLQHPYIVDAGVTGIPDEAAGELPAAGVVVQTGKYLNEQIVQDYVASQVSTAKWLRGGVKFLDEIPKGSTGKIDRKVLRQMLEKHTNGHHHHHHHH | 15.7 µM | 764,421 RLU | 128 µM | 35,633 RLU | 72 °C |
